Experimental findings from patent US20260193342A1 (ZOETIS SERVICES, published 2026) are described below.

The chains are these.
B1: mAb2 of Table 4A, caninized anti-NGF antibody ZTS-841, canine IgGA, N434W (antibody)
heavy: EVQLVESGGDLVKPGGSLRLSCVASGFTFSSHGMHWVRQSPGKGLQWVAVINSGGSSTYYTDAVKGRFTISRDNAKNTVYLQMNSLRAEDTAMYYCAKESVGGWEQLVGPHFDYWGQGTLVIVSSASTTAPSVFPLAPSCGSTSGSTVALACLVSGYFPEPVTVSWNSGSLTSGVHTFPSVLQSSGLHSLSSMVTVPSSRWPSETFTCNVVHPASNTKVDKPVFNECRCTDTPPCPVPEPLGGPSVLIFPPKPKDILRITRTPEVTCVVLDLGREDPEVQISWFVDGKEVHTAKTQSREQQFNGTYRVVSVLPIEHQDWLTGKEFKCRVNHIDLPSPIERTISKARGRAHKPSVYVLPPSPKELSSSDTVSITCLIKDFYPPDIDVEWQSNGQQEPERKHRMTPPQLDEDGSYFLYSKLSVDKSRWQQGDPFTCAVMHETLQWHYTDLSLSHSPGK
VL: QSVLTQPTSVSGSLGQRVTISCSGSTNNIGILGASWYQLFPGKAPKLLVYGNGNRPSGVPDRFSGADSGDSVTLTITGLQAEDEADYYCQSFDTTLGAHVFGGGTHLTVL
notes: also called ID No. 44
B2: mAb2 of Table 4A, caninized anti-NGF antibody ZTS-841, canine IgGB, N434I (antibody)
heavy: EVQLVESGGDLVKPGGSLRLSCVASGFTFSSHGMHWVRQSPGKGLQWVAVINSGGSSTYYTDAVKGRFTISRDNAKNTVYLQMNSLRAEDTAMYYCAKESVGGWEQLVGPHFDYWGQGTLVIVSSASTTAPSVFPLAPSCGSTSGSTVALACLVSGYFPEPVTVSWNSGSLTSGVHTFPSVLQSSGLYSLSSMVTVPSSRWPSETFTCNVAHPASKTKVDKPVPKRENGRVPRPPDCPKCPAPEMLGGPSVFIFPPKPKDTLLIARTPEVTCVVVDLDPEDPEVQISWFVDGKQMQTAKTQPREEQFNGTYRVVSVLPIGHQDWLKGKQFTCKVNNKALPSPIERTISKARGQAHQPSVYVLPPSREELSKNTVSLTCLIKDFFPPDIDVEWQSNGQQEPESKYRTTPPQLDEDGSYFLYSKLSVDKSRWQRGDTFICAVMHEALHIHYTQESLSHSPGK
VL: B1 VL
notes: also called ID No. 50
B3: mAb2 of Table 4A, caninized anti-NGF antibody ZTS-841, canine IgGA, N434Y (antibody)
heavy: B1 heavy with W443Y
VL: B1 VL
notes: also called ID No. 45
B4: mAb1, caninized anti-IL31 antibody 34D03, canine IgGA, N434Y (antibody)
heavy: EVQLVESGGDLVKPGGSLRLSCVASGFTFSNYGMSWVRQAPGKGLQWVATISYGGSYTYYPDNIKGRFTISRDNAKNTLYLQMNSLRAEDTAMYYCVRGYGYDTMDYWGQGTLVTVSSASTTAPSVFPLAPSCGSTSGSTVALACLVSGYFPEPVTVSWNSGSLTSGVHTFPSVLQSSGLHSLSSMVTVPSSRWPSETFTCNVVHPASNTKVDKPVFNECRCTDTPPCPVPEPLGGPSVLIFPPKPKDILRITRTPEVTCVVLDLGREDPEVQISWFVDGKEVHTAKTQSREQQFNGTYRVVSVLPIEHQDWLTGKEFKCRVNHIDLPSPIERTISKARGRAHKPSVYVLPPSPKELSSSDTVSITCLIKDFYPPDIDVEWQSNGQQEPERKHRMTPPQLDEDGSYFLYSKLSVDKSRWQQGDPFTCAVMHETLQYHYTDLSLSHSPGK
light: EIVMTQSPASLSLSQEEKVTITCKASQSVSFAGTGLMHWYQQKPGQAPKLLIYRASNLEAGVPSRFSGSGSGTDFSFTISSLEPEDVAVYYCQQSREYPWTFGQGTKLEIKRNDAQPAVYLFQPSPDQLHTGSASVVCLLNSFYPKDINVKWKVDGVIQDTGIQESVTEQDKDSTYSLSSTLTMSSTEYLSHELYSCEITHKSLPSTLIKSFQRSEC
notes: VH/VL: the caninized 34D03 entries of the listing; also called ID No. 7; copies: 2 + 2
B5: mAb1, caninized anti-IL31 antibody 34D03, canine IgGB, N434K (antibody)
heavy: EVQLVESGGDLVKPGGSLRLSCVASGFTFSNYGMSWVRQAPGKGLQWVATISYGGSYTYYPDNIKGRFTISRDNAKNTLYLQMNSLRAEDTAMYYCVRGYGYDTMDYWGQGTLVTVSSASTTAPSVFPLAPSCGSTSGSTVALACLVSGYFPEPVTVSWNSGSLTSGVHTFPSVLQSSGLYSLSSMVTVPSSRWPSETFTCNVAHPASKTKVDKPVPKRENGRVPRPPDCPKCPAPEMLGGPSVFIFPPKPKDTLLIARTPEVTCVVVDLDPEDPEVQISWFVDGKQMQTAKTQPREEQFNGTYRVVSVLPIGHQDWLKGKQFTCKVNNKALPSPIERTISKARGQAHQPSVYVLPPSREELSKNTVSLTCLIKDFFPPDIDVEWQSNGQQEPESKYRTTPPQLDEDGSYFLYSKLSVDKSRWQRGDTFICAVMHEALHKHYTQESLSHSPGK
light: B4 light
notes: VH/VL: the caninized 34D03 entries of the listing; also called ID No. 13; copies: 2 + 2
B6: mAb1, caninized anti-IL31 antibody 34D03, canine IgGB, N434G (antibody)
heavy: B5 heavy with K440G
light: B4 light
notes: VH/VL: the caninized 34D03 entries of the listing; also called ID No. 11; copies: 2 + 2
B7: mAb1, caninized anti-IL31 antibody 34D03, canine IgGB, N434F (antibody)
heavy: B5 heavy with K440F
light: B4 light
notes: VH/VL: the caninized 34D03 entries of the listing; also called ID No. 10; copies: 2 + 2
B8: mAb1, caninized anti-IL31 antibody 34D03, canine IgGB, N434I (antibody)
heavy: B5 heavy with K440I
light: B4 light
notes: VH/VL: the caninized 34D03 entries of the listing; also called ID No. 12; copies: 2 + 2
B9: mAb1, caninized anti-IL31 antibody 34D03, canine IgGB, N434A (antibody)
heavy: B5 heavy with K440A
light: B4 light
notes: VH/VL: the caninized 34D03 entries of the listing; also called ID No. 9; copies: 2 + 2

Substitutions are numbered along the chain they refer to.

In the first assay the target is T1, canine FcRn complex (FcRn-α subunit and β-microglobulin) (canine, UniProt A0A8I3PFR8 25-347, biotin on the BAP tag by BirA (Example 5 only)). Kind of assay: SPR (Biacore), biotinylated FcRn on SA chip, IgG flowed, pH 6, 15 C.
T1 sequence (A0A8I3PFR8 entry or part of it, one chain of several): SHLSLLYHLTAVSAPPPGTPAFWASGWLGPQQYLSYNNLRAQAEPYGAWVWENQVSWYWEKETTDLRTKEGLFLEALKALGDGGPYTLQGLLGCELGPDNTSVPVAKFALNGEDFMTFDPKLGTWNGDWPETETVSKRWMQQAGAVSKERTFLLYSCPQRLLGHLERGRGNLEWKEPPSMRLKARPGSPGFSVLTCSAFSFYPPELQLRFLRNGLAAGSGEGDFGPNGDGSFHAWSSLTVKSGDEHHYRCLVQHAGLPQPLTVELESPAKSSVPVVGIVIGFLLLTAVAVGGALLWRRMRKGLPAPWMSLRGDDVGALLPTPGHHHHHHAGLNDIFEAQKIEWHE
Consider B1, for which binding was put at a Kd of 10.6 nM.

The molecule B2 had a Kd of 2.76 nM. Against the preceding molecule, the Kd is about 3.8-fold lower.

Molecule B3 yielded a Kd of 14.3 nM.

B4 displayed a Kd of 25.2 nM.

B5 registered a Kd of 9.11 nM. Against the preceding molecule, the Kd is about 2.8-fold lower.

In turn, B6 gave a Kd of 118 nM.

B7 displayed a Kd of 30.7 nM.

Turning to B8, the Kd is 77.1 nM.

Molecule B9 gave a Kd of 139 nM.

Another assay concerns the target T1, canine FcRn complex (FcRn-α subunit and …). Kind of assay: SPR (Biacore), biotinylated FcRn on SA chip, IgG flowed, pH 7.4, 15 C. (SPR reads the build-up and loss of mass on a sensor chip optically.)
The molecule B1 gave a Kd of 1520 nM.

The molecule B2 registered a dissociation constant (Kd) of 22800 nM. This Kd lies about 15-fold higher than the previous one.

In turn, B3 showed a Kd of 9530 nM.

For B4, the Kd worked out at 573 nM. Compared with the last molecule, the Kd is about 17-fold lower.

Molecule B5 displayed a Kd of 7.86 nM.

B6: binding was characterised by a dissociation constant (Kd) of 26000 nM. This Kd is about 3300-fold higher than that of the molecule before.

B7: the Kd turned out to be 33700 nM.

For the molecule B8, the Kd is 19600 nM. Against the preceding molecule, the Kd is about 1.7-fold lower.

Consider B9, for which the Kd is 175 nM. Against the preceding molecule, the Kd is about 110-fold lower.

What is called Kd is the constant that tells how readily two partners part at equilibrium. Read a low Kd as tighter binding.
